{"source": "patent US20200325230A1", "about": "(CURIA IP, published 2020)", "key": {"human BTLA(ECD)-HIS": {"target": "T1, human BTLA(ECD)-HIS (human, UniProt Q7Z6A9 31-157)", "T1 construct": "extracellular domain; also called recombinant BTLA; not shown: HIS tag", "test": "ELISA, coated BTLA(ECD)-HIS, chemiluminescence (RLU)"}, "cynomolgus BTLA(ECD)-HIS": {"target": "T2, cynomolgus BTLA(ECD)-HIS (cynomolgus, UniProt A0A2K5W7M7 31-157)", "T2 construct": "extracellular domain; also called Cyno BTLA; not shown: HIS tag", "T2 sequence (A0A2K5W7M7 entry or part of it)": "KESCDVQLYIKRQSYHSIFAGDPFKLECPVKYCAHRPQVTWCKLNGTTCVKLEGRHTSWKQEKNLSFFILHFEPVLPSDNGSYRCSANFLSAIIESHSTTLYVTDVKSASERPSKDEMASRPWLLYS", "test": "ELISA, coated BTLA(ECD)-HIS, chemiluminescence (RLU)"}, "[1]": {"target": "T3, human BTLA expressed on HEK-293 cells (human, UniProt Q7Z6A9 31-289)", "T3 construct": "whole, on cells", "test": "flow cytometry on HEK 293 cells expressing BTLA (MFI)"}, "[2]": {"target": "T4, cynomolgus BTLA expressed on HEK-293 cells (cynomolgus, UniProt A0A2K5W7M7 31-289)", "T4 construct": "whole, on cells; also called Cyno BTLA", "T4 sequence (A0A2K5W7M7 entry or part of it)": "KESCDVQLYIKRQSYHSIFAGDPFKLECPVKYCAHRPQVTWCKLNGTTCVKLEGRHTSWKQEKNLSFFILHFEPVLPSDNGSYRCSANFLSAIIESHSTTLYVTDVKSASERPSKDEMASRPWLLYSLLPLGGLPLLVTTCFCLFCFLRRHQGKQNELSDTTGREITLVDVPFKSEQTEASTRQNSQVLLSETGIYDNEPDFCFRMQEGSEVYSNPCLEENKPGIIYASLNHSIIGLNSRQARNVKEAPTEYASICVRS", "test": "flow cytometry on HEK 293 cells expressing BTLA (MFI)"}, "human BTLA-human Fc": {"target": "T5, human BTLA-human Fc (human, UniProt Q7Z6A9 31-157)", "T5 construct": "not shown: human Fc", "test": "ELISA, inhibition of BTLA-human Fc binding to coated human HVEM-ratIgG2a"}, "cynoBTLA-human Fc": {"target": "T6, cynoBTLA-human Fc (cynomolgus, UniProt A0A2K5W7M7 31-157)", "T6 construct": "also called cynomolgus BTLA; not shown: human Fc", "test": "ELISA, inhibition of cynoBTLA-human Fc binding to coated human HVEM-ratIgG2a"}, "recombinant human BTLA": {"target": "recombinant human BTLA (human, UniProt Q7Z6A9 31-157, limits assumed)", "test": "Bio-Layer Interferometry (Octet), antibody captured by anti-human-Fc (AHC), BTLA in solution, 1:1 fit"}, "[3]": {"target": "T7, cynomolgus BTLA (analyte of Bio-Layer Interferometry) (cynomolgus, UniProt A0A2K5W7M7 31-157)", "T7 construct": "also called Cyno BTLA", "test": "Bio-Layer Interferometry (Octet), antibody captured by anti-human-Fc (AHC), BTLA in solution, 1:1 fit"}}, "data": [{"binder": "anti-BTLA antibody 13-F7A (antibody, V domains shown) VH: EVQLLESGGGLVQPGGSLRLSCAASGFTSSSYGMSWVRQAPGKGLEWVSGISGSGGGTYYADSVKGRFTISRDNSKNTLYLQMNSLRAEDTAVYYCAKGDYYGSGSYPLFDYWGQGTLVTVSS VL: AIQLTQSPSSLSASVGDRVTITCRASQDISSALAWYQQKPGKAPKLLISDASSLESGVPSRFSGSGSGTDFTLTISSLQPEDFATFYCQQFNNYPPTFGPGTKVDIK", "values": [{"measurement": "EC50", "setting": "human BTLA(ECD)-HIS", "value": 1, "unit": "nM"}, {"measurement": "EC50", "setting": "cynomolgus BTLA(ECD)-HIS", "value": 1, "unit": "nM"}, {"measurement": "EC50", "setting": "[1]", "value": 1.5, "unit": "nM"}, {"measurement": "EC50", "setting": "[2]", "value": 2.6, "unit": "nM"}, {"measurement": "IC50", "setting": "human BTLA-human Fc", "value": 2.5, "unit": "nM"}, {"measurement": "IC50", "setting": "cynoBTLA-human Fc", "value": 1.8, "unit": "nM"}, {"measurement": "Kd", "setting": "recombinant human BTLA", "value": 5.4, "unit": "nM"}, {"measurement": "Kd", "setting": "[3]", "value": 3.9, "unit": "nM"}]}, {"binder": "anti-BTLA antibody 16-I20A (antibody, V domains shown, also called 16420A) VH: QVQLQESGPGLVKPSETLSLTCTVSGGSISYYYWSWIRQPPGTGLEWIGYIYYSGSTKYNPSLKRRVTISVDTSKNQFSLKLSSVTAADTAVYYCARIRGDSYGWDFDYWGQGTLVTVSS VL: EIVMTQSPATLSLSPGERATLSCRASQSISNNYLFWYQQKPGQAPRLLIYGASTRATGIPARFSGSGSGTDFTLTISSLQPEDFAVYYCQQDYNFPLTFGGGTKVEIK", "values": [{"measurement": "EC50", "setting": "human BTLA(ECD)-HIS", "value": 0.7, "unit": "nM"}, {"measurement": "EC50", "setting": "cynomolgus BTLA(ECD)-HIS", "value": 0.8, "unit": "nM"}, {"measurement": "EC50", "setting": "[1]", "value": 5, "unit": "nM"}, {"measurement": "EC50", "setting": "[2]", "value": 6.9, "unit": "nM"}, {"measurement": "IC50", "setting": "human BTLA-human Fc", "value": 2.9, "unit": "nM"}, {"measurement": "IC50", "setting": "cynoBTLA-human Fc", "value": 2.5, "unit": "nM"}, {"measurement": "Kd", "setting": "recombinant human BTLA", "value": 14.9, "unit": "nM"}, {"measurement": "Kd", "setting": "[3]", "value": 16.6, "unit": "nM"}]}, {"binder": "anti-BTLA antibody 8-M23A (antibody, V domains shown) VH: QVQLQESGPGLVKPSETLSLTCTVSGGSISSYYWSWIRQPPGKGLEWIGYIYYSGSTNYNPSLKSRITISVDTSKNQFSLKLSSVTAADTAVYYCARVILYSSGWSFDYWGQGTLVTVSS VL: EIVMTQSPATLSLSPGERATLSCRASQSVSSSYLSWYQQKPGQAPRLLIYGASTRATGIPARFSGSGSGTDFTLTISSLQPEDFAVYYCQQDYNLPLTFGGGTKVEIK", "values": [{"measurement": "EC50", "setting": "human BTLA(ECD)-HIS", "value": 0.8, "unit": "nM"}]}, {"binder": "anti-BTLA antibody 16-H16A (antibody, V domains shown) VH: QLQLQESGPGLVKPSETLSLTCTVSGDSISSSGYYWGWIRQPPGKGLEWIGSIYYSGSTHYNPSLKSRVTISVDSSKSQFSLKLSSVTAADTAVYCCARHKVDSSGWPLDYWGQGTLVTVSS VL: EIVMTQSPATLSLSPGERATLSCRASQSISSSCLSWYQQKPGQAPRLLIYDTSTRATGIPARFSGSGSGTDFTLTISSLQPEDFAVYYCQQDYNLPLTFGGGTKVEIK", "values": [{"measurement": "EC50", "setting": "human BTLA(ECD)-HIS", "value": 0.9, "unit": "nM"}, {"measurement": "EC50", "setting": "cynomolgus BTLA(ECD)-HIS", "value": 1.9, "unit": "nM"}, {"measurement": "EC50", "setting": "[1]", "value": 4.7, "unit": "nM"}, {"measurement": "EC50", "setting": "[2]", "value": 4.4, "unit": "nM"}, {"measurement": "IC50", "setting": "human BTLA-human Fc", "value": 3, "unit": "nM"}, {"measurement": "IC50", "setting": "cynoBTLA-human Fc", "value": 2.3, "unit": "nM"}, {"measurement": "Kd", "setting": "recombinant human BTLA", "value": 13.9, "unit": "nM"}, {"measurement": "Kd", "setting": "[3]", "value": 4.1, "unit": "nM"}]}, {"binder": "anti-BTLA antibody 12-I8A (antibody, V domains shown, also called 12-IBA) VH: QVQLVESGGGVVQPGRSLRLSCAASGFTFSNYGMHWVRQAPGKGLEWVAVIWYNGSNKYYADSVKGRFTISRDNSKNTLYLQMNSLRAEDTAVYYCARDDVVRYFDWPLDYWGQGTLVTVSS VL: AIQMTQSPSSLSASVGDRVTITCRASQGIRNDLGWYQQKPGKAPKVLIYAASSLQSGVPSRFSGSGSGTDFTLTISSLQPEDFATYYCLQDYNYPWTFGQGTKVEIK", "values": [{"measurement": "EC50", "setting": "human BTLA(ECD)-HIS", "value": 1.4, "unit": "nM"}, {"measurement": "EC50", "setting": "cynomolgus BTLA(ECD)-HIS", "value": 4.2, "unit": "nM"}, {"measurement": "EC50", "setting": "[1]", "value": 2.9, "unit": "nM"}, {"measurement": "EC50", "setting": "[2]", "value": 5, "unit": "nM"}, {"measurement": "IC50", "setting": "human BTLA-human Fc", "value": 4.4, "unit": "nM"}, {"measurement": "IC50", "setting": "cynoBTLA-human Fc", "value": 4.6, "unit": "nM"}, {"measurement": "Kd", "setting": "recombinant human BTLA", "value": 25.2, "unit": "nM"}, {"measurement": "Kd", "setting": "[3]", "value": 23.2, "unit": "nM"}]}]}
